What was measured:
Experiment in all cases: two-hybrid
[1] = biological target: SUMO (small ubiquitin-like modifier, encoded by pmt3) (fission yeast (Schizosaccharomyces pombe)) (UniProt O13351)
[2] = biological target: Tpz1 (fission yeast (Schizosaccharomyces pombe)) (UniProt O14246)
[3] = biological target: chimeric protein SUMO-Tpz1(243-420) (fission yeast (Schizosaccharomyces pombe)) (UniProt O14246)

Chain of UniProt O14246 (O14246 whole entry): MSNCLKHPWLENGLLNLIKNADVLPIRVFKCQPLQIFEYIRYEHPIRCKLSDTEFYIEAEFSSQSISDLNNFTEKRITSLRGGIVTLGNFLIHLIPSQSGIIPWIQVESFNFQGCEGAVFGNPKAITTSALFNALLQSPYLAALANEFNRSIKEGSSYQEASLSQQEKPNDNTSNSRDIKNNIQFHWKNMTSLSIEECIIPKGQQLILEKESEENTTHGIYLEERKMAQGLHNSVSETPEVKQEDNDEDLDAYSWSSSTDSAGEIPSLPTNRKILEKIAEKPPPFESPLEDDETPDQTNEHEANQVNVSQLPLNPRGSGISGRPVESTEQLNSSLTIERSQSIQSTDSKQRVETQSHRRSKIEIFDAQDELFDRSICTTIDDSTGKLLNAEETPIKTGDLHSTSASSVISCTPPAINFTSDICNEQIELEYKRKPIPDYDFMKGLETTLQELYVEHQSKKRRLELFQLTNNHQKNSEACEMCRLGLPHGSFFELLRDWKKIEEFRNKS
Chain of UniProt O13351 (O13351 whole entry): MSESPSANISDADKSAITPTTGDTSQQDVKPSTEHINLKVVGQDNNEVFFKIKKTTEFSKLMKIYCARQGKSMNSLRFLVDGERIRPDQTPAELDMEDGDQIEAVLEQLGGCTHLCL

Ten1Stn1 fusion protein (Ten1, Gly15 linker, Stn1)
β-galactosidase activity (two-hybrid) (β-galactosidase U) [1]: 50 | β-galactosidase activity (two-hybrid) (β-galactosidase U) [2]: 7 | β-galactosidase activity (two-hybrid) (β-galactosidase U) [3]: 50

From paper PMC5955624
